# Measured values reported in patent US20120027739A1.
# B1: soluble disulfide-linked MAGE-A3 TCR: alpha chain with variable domain SEQ ID No: 8, reference TCR beta chain (TCR, V domains shown)
# V domain 1: KQEVTQIPAALSVPEGENLVLNCSFTDSAIYNLQWFRQDPGKGLTSLLLVRPYQREQTSGRLNASLDKSSGRSTLYIAASQPGDSATYLCAVRPGGAGSYQLTFGKGTKLSVIP
# V domain 2: KAGVTQTPRYLIKTRGQQVTLSCSPISGHRSVSWYQQTPGQGLQFLFEYFSETQRNKGNFPGRFSGRQFSNSRSEMNVSTLELGDSALYLCASSPNMADEQYFGPGTRLTVTE
# Molecular target: … HLA-A*01 complex (soluble, biotinylated)
# Assay: BIAcore SPR; pHLA immobilised via biotin, soluble TCR injected
binder,measurement,value
B1,Kd,6.55 µM
same,T½,6.1 s
same,koff,0.114 s⁻¹
